Reference: US20240151714A1 (AJOU UNIVERSITY INDUSTRY ACADEMIC COOPERATION FOUNDATION, published 2024)

How the values were obtained:
[1] = biological target: T1, cTnI protein (ab207624; Abcam) (UniProt P19429 1-210, limits assumed); assay: PPR-based homogeneous assay, specificity test (trastuzumab-DNA1 with pertuzumab-DNA2)
T1 construct: also called cardiac troponin I
Procedure: (§1) In a homogeneous assay to detect the target substance, samples were mixed with four conjugates (TEVP-first DNA′, BLZ-second DNA′, first binder-first DNA agent, second binder-second DNA) and […] CENTA™ (EMD Millipore, USA) in a reaction buffer (137 mM NaCl, 2.7 mM KCl, 10 mM Na₂HPO₄, 2 mM KH₂PO₄, 40 mM MgCl₂, 10 mM DTT, 0.5% (w/v) BSA, and pH 7.4). Hydrolysis of CENTA™ by β-lactamase was monitored by measuring absorbance (A₄₀₅) at 405 nm using a plate reader (synergy HT multi-detection reader; BioTek Instruments, USA) at 37° C. for 1 hour. The absorbance signal (ΔAbs=A₄₀₅ at 60 min−A₄₀₅ at 1 min) was plotted as a function of the concentration of the target substance. All experiments were performed at least three times and the limit of detection (LOD) was calculated as the sum of the mean ΔAbs of the blank and three times the standard deviation. In the competitive immunoassay for small molecule detection, an antibody against the target was further contained in the reaction solution. The following proteins were used as targets: HER2 (extracellular domain; 10004-H₀₈H; Sino Biological, China), cTnI protein (ab207624; Abcam, United Kingdom), thrombin (ab62452; Abcam), digoxigenin (D9026; Sigma, USA), digoxigenin polyclonal antibody (PA1-85378; Thermo Fisher Scientific, USA) and hCG monoclonal antibody (MA5-14680; Thermo Fisher Scientific).

[2] = biological target: thrombin (ab62452; Abcam) (human, UniProt P00734 328-622); assay: as above
Procedure: as §1

T1 sequence (P19429 whole entry): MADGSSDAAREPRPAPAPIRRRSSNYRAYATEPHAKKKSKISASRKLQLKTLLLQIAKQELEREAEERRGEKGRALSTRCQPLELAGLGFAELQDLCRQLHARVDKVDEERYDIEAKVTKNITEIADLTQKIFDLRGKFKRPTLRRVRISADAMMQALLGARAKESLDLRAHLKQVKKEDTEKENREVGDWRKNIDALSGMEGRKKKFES

B1: pertuzumab-second DNA conjugate (antibody, V domains shown)
VH: EVQLVESGGGLVQPGGSLRLSCAASGFTFTDYTMDWVRQAPGKGLEWVADVNPNSGGSIYNQRFKGRFTLSVDRSKNTLYLQMNSLRAEDTAVYYCARNLGPSFYFDYWGQGTLVTVSS
VL: DIQMTQSPSSLSASVGDRVTITCKASQDVSIGVAWYQQKPGKAPKLLIYSASYRYTGVPSRFSGSGSGTDFTLTISSLQPEDFATYYCQQYYIYPYTFGQGTKVEIKR
modifications: amine groups conjugated to amine-modified second DNA (SEQ ID NO: 2) via a bis-NHS ester linker; heterogeneous product, sites not stated
notes: IgG made in HEK293F cells and conjugated to ssDNA; also called pertuzumab-DNA2; P-D2
B1: no binding (tested: 10 nM) [1]; no binding (tested: 10 nM) [2].
